# Experimental data: patent US6319897A, “Peptides which inhibit complement activation” (priority 1999, dated 2001)
# pIC50: −log10 of the molar value.
# How the values were obtained:
# C3 = biological target: T1, C3 (Homo sapiens, UniProt P01024); experiment: Phage clone binding ELISA, immobilized C3; details: 2 μg coated, 1 hour 22° C.
# T1 construct: purified from normal human plasma in accordance with well known procedures; from tissue; host or cells: normal human plasma (C3, factor B)
# Description: (§1) Microtiter wells were coated with 2 μg of C3, C3b, C3c or C3d, saturated with blocking buffer, washed with PBS (pH 7.4) containing 0.05% Tween 20, and incubated 1 hour at 22° C. with a positive (clone 9) or negative (clone 1) clone. Binding was inhibited by adding 250 μg/ml of aggregated C3 in PBS, pH 7.4. Bound M13 phage particles were detected by peroxidase-coupled anti-M13 antibody and ABTS peroxidase substrate. Diagonally lined bars represent peroxidase-coupled anti-M13 antibody bound non-specifically to the plate; cross-hatched bars represent clone 9 bound to C3 or C3 fragments; horizontally lined bars represent clone 9 bound to C3 or C3 fragments in the presence of 250 μg/ml of aggregated C3; and vertically lined bars represent clone 1 bound to C3 or C3 fragments.
# (§2) The C3-binding phage was isolated by screening the phage library described in Example 3. Microtiter well plates (Nunc Inc., Naperville, Ill.) were coated overnight with 20 μg of C3b in PBS at 4° C. and blocked with PBS containing 1% BSA for 30 minutes at 22° C. […] The amplified phage mixture obtained after the third round of amplification was plated, and positive phage were identified by confirming their binding to C3b in an ELISA, in which bound phage were detected by peroxidase-labeled anti-M13 antibody (Pharmacia). […]
# C3b = biological target: T2, C3b (Homo sapiens, UniProt P01024); experiment: Phage clone binding ELISA, immobilized C3b; details: 2 μg coated, 1 hour 22° C.
# T2 construct: from tissue; host or cells: normal human plasma; C3 cleaved with trypsin, Mono Q purified
# T2 sequence (P01024 23-667 limits assumed): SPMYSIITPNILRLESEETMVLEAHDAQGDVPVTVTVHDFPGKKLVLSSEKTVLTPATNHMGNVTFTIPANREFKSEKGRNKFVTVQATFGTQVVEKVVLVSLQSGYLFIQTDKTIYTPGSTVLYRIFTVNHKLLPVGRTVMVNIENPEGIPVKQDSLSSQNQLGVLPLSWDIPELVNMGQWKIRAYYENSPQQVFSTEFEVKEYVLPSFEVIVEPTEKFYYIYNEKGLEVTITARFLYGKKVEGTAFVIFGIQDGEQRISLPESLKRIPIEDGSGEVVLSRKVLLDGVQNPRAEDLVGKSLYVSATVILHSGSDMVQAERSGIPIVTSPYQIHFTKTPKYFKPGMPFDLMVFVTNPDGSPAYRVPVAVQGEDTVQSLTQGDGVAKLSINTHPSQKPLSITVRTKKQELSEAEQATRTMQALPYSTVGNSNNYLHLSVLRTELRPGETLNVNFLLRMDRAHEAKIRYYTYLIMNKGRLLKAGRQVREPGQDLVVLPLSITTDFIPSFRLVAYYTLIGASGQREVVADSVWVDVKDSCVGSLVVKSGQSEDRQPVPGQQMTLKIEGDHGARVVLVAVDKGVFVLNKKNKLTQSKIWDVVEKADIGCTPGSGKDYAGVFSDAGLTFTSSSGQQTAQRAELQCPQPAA
# T2 sequence (P01024 749-1663 limits assumed): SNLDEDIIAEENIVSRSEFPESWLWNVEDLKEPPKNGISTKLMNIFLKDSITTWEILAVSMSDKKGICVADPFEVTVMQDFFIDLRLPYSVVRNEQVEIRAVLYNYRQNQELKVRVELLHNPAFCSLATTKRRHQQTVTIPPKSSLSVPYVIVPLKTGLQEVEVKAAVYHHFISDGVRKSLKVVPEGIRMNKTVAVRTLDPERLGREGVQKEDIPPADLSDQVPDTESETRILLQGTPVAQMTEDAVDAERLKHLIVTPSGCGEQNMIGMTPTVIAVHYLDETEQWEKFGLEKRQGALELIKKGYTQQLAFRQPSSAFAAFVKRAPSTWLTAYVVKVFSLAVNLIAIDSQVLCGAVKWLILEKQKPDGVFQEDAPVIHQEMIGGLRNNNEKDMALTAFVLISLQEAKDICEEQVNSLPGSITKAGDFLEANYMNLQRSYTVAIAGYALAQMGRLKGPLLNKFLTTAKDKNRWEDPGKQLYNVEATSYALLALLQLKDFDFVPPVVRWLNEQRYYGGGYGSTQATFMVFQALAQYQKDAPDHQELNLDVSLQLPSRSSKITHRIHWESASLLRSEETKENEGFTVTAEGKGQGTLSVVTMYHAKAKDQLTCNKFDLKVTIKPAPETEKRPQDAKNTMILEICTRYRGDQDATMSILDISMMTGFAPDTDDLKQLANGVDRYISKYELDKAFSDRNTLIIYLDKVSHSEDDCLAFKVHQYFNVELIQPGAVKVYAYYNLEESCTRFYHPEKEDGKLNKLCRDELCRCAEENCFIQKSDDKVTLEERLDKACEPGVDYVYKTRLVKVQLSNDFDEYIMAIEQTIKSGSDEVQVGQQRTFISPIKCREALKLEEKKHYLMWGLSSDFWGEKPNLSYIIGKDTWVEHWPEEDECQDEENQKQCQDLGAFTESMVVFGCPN
# Description: as §1, §2
# C3c = biological target: T3, C3c (Homo sapiens, UniProt P01024); experiment: Phage clone binding ELISA, immobilized C3c; details: 2 μg coated, 1 hour 22° C.
# T3 construct: C3c, 135,300 Mr fragment of C3 generated using elastase; from tissue; host or cells: normal human plasma; C3 treated with elastase, Mono Q purified
# T3 sequence (P01024 23-667 limits assumed): as the sequence (P01024 23-667 limits assumed) above
# T3 sequence (P01024 749-954 limits assumed): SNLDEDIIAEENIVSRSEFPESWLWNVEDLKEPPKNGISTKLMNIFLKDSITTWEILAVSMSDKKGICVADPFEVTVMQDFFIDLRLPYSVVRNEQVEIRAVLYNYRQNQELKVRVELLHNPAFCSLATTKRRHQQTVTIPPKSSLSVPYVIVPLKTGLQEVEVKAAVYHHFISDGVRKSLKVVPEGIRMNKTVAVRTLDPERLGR
# T3 sequence (P01024 1321-1663 limits assumed): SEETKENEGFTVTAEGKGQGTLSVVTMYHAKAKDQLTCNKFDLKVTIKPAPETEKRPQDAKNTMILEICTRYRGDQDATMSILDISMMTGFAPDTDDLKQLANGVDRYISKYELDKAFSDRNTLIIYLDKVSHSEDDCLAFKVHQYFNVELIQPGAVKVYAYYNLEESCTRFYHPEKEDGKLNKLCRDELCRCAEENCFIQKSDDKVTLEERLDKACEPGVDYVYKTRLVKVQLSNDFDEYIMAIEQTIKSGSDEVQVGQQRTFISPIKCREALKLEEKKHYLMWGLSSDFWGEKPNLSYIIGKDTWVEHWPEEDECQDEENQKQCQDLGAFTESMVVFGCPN
# Description: as §1, §2
# C3d = biological target: T4, C3d (Homo sapiens, UniProt P01024); experiment: Phage clone binding ELISA, immobilized C3d; details: 2 μg coated, 1 hour 22° C.
# T4 construct: C3d, 35,000 Mr fragment of C3 generated using elastase; from tissue; host or cells: normal human plasma; C3 treated with elastase, Mono Q purified
# T4 sequence (P01024 1002-1303 limits assumed): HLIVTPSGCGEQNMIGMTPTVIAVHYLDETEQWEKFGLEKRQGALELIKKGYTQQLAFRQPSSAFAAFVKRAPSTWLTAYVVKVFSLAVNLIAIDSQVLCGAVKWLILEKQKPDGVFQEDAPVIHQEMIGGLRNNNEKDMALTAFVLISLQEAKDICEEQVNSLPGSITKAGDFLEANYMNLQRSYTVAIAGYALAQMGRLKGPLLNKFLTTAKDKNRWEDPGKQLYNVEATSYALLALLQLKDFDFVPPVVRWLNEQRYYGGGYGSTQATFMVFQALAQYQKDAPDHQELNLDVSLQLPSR
# Description: as §1, §2
# [1] = tested on: classical pathway-mediated hemolytic activity (thioester of C3); details: read-out: 50% inhibitory concentration, classical pathway-mediated hemolytic activity; cited from earlier work
# [2] = tested on: alternative pathway-mediated hemolytic activity (thioester of C3); details: read-out: 50% inhibitory concentration, alternative pathway-mediated hemolytic activity; cited from earlier work
# complement = details: in vivo; cited from earlier work
# T1 sequence (P01024 23-667 limits assumed): as the sequence (P01024 23-667 limits assumed) above
# T1 sequence (P01024 672-1663 limits assumed): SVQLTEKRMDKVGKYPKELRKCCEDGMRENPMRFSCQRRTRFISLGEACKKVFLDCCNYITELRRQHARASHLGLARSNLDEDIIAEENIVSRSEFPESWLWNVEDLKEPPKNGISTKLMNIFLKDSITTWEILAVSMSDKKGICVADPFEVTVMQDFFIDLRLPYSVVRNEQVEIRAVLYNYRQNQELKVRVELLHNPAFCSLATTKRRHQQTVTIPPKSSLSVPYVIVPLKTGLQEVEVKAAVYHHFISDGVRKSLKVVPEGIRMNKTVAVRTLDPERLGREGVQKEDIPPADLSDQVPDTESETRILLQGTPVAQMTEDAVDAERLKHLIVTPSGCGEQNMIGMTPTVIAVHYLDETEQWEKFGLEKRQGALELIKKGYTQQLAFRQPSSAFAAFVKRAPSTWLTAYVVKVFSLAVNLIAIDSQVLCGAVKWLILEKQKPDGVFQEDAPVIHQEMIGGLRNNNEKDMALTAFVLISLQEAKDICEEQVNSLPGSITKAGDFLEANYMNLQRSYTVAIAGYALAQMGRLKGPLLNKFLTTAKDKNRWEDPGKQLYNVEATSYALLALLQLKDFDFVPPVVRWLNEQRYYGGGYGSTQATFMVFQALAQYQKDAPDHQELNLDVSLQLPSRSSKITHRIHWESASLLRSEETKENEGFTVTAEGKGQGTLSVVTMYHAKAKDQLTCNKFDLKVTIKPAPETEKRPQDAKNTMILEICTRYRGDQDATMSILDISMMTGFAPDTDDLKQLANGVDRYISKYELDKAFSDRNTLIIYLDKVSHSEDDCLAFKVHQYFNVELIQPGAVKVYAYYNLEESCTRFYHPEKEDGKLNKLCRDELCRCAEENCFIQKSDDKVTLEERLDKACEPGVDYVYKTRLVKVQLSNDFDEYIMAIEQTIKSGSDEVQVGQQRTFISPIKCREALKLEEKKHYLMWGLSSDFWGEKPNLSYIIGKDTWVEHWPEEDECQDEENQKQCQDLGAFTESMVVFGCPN
compound,measurement,setting,value
SSICVVQDWGHHRCTAGHMANLTSHASAIR [Clone 9],binding of phage clone to C3,C3,bound
same,binding of phage clone to C3b,C3b,bound
same,binding of phage clone to C3c,C3c,bound
same,binding of phage clone to C3d,C3d,not to C3d
O=C(NO)c1ccccc1O [salicyl hydroxamate],pIC50,[1],3.55
same,pIC50,[2],4.48
sCR1: soluble form of CR1 (complement receptor 1),complement suppression in complement-dependent disease models,complement,suppresses complement
